In patent publication US20170173132A1 (IMMATICS BIOTECHNOLOGIES, published 2017):
Square brackets hold non-standard residues; d marks the D form. Ends that are not written are not given here. pT = C[C@@H](OP(=O)(O)O)[C@H](N)C(=O)O

Biological target: T1, HLA-A*02:01 (peptide-receptive MHC class I molecule, heavy chain with β2m light chain) (human)
T1 construct: The UV-sensitive placeholder peptide is cleaved on irradiation and exchanged for the tested peptide
Experiment: UV-ligand exchange, anti-β2m ELISA; grade of peptide exchange yield (≥10% = +; ≥20% = ++; ≥50 = +++; ≥75% = ++++)
Description: Candidate peptides for T cell based therapies according to the present invention were further tested for their MHC binding capacity (affinity). The individual peptide-MHC complexes were produced by UV-ligand exchange, where a UV-sensitive peptide is cleaved upon UV-irradiation, and exchanged with the peptide of interest as analyzed. Only peptide candidates that can effectively bind and stabilize the peptide-receptive MHC molecules prevent dissociation of the MHC complexes. To determine the yield of the exchange reaction, an ELISA was performed based on the detection of the light chain (β2m) of stabilized MHC complexes. The assay was performed as generally described in Rodenko et al. (Rodenko et al., 2006).
96 well MAXISorp plates (NUNC) were coated over night with 2 ug/ml streptavidin in PBS at room temperature, washed 4× and blocked for 1 h at 37° C. in 2% BSA containing blocking buffer. Refolded HLA-A*02:01/MLA-001 monomers served as standards, covering the range of 15-500 ng/ml. Peptide-MHC monomers of the UV-exchange reaction were diluted 100-fold in blocking buffer. Samples were incubated for 1 h at 37° C., washed four times, incubated with 2 ug/ml HRP conjugated anti-β2m for 1 h at 37° C., washed again and detected with TMB solution that is stopped with […]. Absorption was measured at 450 nm. Candidate peptides that show a high exchange yield (preferably higher than 50%, most preferred higher than 75%) are generally preferred for a generation and production of antibodies or fragments thereof, and/or T cell receptors or fragments thereof, as they show sufficient avidity to the MHC molecules and prevent dissociation of the MHC complexes.

Row | Binder | peptide exchange yield
1 | KMPEHISTV [peptide KMPEHISTV] | 50 to 75%
2 | GLLPTSVSPRV [peptide GLLPTSVSPRV] | 20 to 50%
3 | KAFPFYNTV [peptide KAFPFYNTV] | 20 to 50%
4 | KLYEGIPVL [peptide KLYEGIPVL] | 20 to 50%
5 | KQLELELEV [peptide KQLELELEV] | 50 to 75%
6 | SLFPSLVVV [peptide SLFPSLVVV] | 50 to 75%
7 | SMMGLLTNL [peptide SMMGLLTNL] | ≥ 75%
8 | TIASSIEKA [peptide TIASSIEKA] | 20 to 50%
9 | YILLQSPQL [peptide YILLQSPQL] | 50 to 75%
10 | ALEEQLHQV [peptide ALEEQLHQV] | 20 to 50%
11 | FSFPVSVGV [peptide FSFPVSVGV] | 50 to 75%
12 | ALAGSSPQV [peptide ALAGSSPQV] | 50 to 75%
13 | SLLTEPALV [peptide SLLTEPALV] | 50 to 75%
14 | YIDGLESRV [peptide YIDGLESRV] | 50 to 75%
15 | SLADAVEKV [peptide SLADAVEKV] | 50 to 75%
16 | GLLGFQAEA [peptide GLLGFQAEA] | ≥ 75%
17 | ILFDVVVFL [peptide ILFDVVVFL] | 20 to 50%
18 | SLAWDVPAA [peptide SLAWDVPAA] | 50 to 75%
19 | SLAEPRVSV [peptide SLAEPRVSV] | 50 to 75%
20 | SLFSVPFFL [peptide SLFSVPFFL] | ≥ 75%

Row | Binder | peptide exchange yield
21 | ALEA[pT]QLYL [peptide ALEAUQLYL] | 50 to 75%
22 | FLSSEAANV [peptide FLSSEAANV] | 20 to 50%
23 | SLVEGEAVHLA [peptide SLVEGEAVHLA] | 20 to 50%
24 | GLSYIYNTV [peptide GLSYIYNTV] | 20 to 50%
25 | GLVATLQSL [peptide GLVATLQSL] | 50 to 75%
26 | ILTELPPGV [peptide ILTELPPGV] | 20 to 50%
27 | SLLSEIQAL [peptide SLLSEIQAL] | ≥ 75%
28 | TLLGLAVNV [peptide TLLGLAVNV] | ≥ 75%
29 | LLM[pT]VAGLKL [peptide LLMUVAGLKL] | ≥ 75%
30 | KLLDMELEM [peptide KLLDMELEM] | ≥ 75%
31 | SLNDQGYLL [peptide SLNDQGYLL] | 50 to 75%
32 | FLVEHVLTL [peptide FLVEHVLTL] | ≥ 75%
33 | FLDEEVKLI [peptide FLDEEVKLI] | 50 to 75%
34 | ALNPVIYTV [peptide ALNPVIYTV] | 20 to 50%
35 | ALTALQNYL [peptide ALTALQNYL] | 50 to 75%
36 | FIIPTVATA [peptide FIIPTVATA] | ≥ 75%
37 | GLVQSLTSI [peptide GLVQSLTSI] | ≥ 75%
38 | FMSKLVPAI [peptide FMSKLVPAI] | 50 to 75%
39 | GLHSLPPEV [peptide GLHSLPPEV] | 50 to 75%
